To fix the notation:
T1: human aquaporin 2 (AQP2), wild-type (human, UniProt P41181 1-271, cysteine residues labeled with C5 maleimide Alexa 488; dephosphorylated with alkaline phosphatase before labeling)
T1 construct: concentrations and molar ratios seem to count monomers; His-tag is called uncleavable; also called WT; labeled AQP2; source: Pichia pastoris, purified (HisTrap, SEC) in OGNG; not shown: His-tag, N-terminal, kept
T1 sequence (looked up): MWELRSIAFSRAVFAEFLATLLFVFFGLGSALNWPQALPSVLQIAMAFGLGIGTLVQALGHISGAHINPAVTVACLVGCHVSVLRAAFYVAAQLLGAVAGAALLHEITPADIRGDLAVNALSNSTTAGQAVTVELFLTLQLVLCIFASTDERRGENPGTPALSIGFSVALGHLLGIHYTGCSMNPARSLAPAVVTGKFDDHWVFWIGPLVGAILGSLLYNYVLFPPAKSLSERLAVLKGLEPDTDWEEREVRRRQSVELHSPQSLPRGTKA

B1: N-terminal domain of human LIP5 (ND-LIP5, residues 1-162) (domain or fragment)
chain: MAALAPLPPLPAQFKSIQHHLRTAQEHDKRDPVVAYYCRLYAMQTGMKIDSKTPECRKFLSKLMDQLEALKKQLGDNEAITQEIVGCAHLENYALKMFLYADNEDRAGRFHKNMIKSFYTASLLIDVITVFGELTDENVKHRKYARWKATYIHNCLKNGETPDYDIPTT
notes: LIP5, human, N-terminal domain, residues 1-162; spacer between the last ND-LIP5 residue and the TEV protease site that precedes the His tag; TEV site between spacer and His tag; no cleavage described; source: E. coli BL21*(DE3), purified (HisTrap, SEC)
B2: full-length human lysosomal trafficking regulator-interacting protein 5 (FL-LIP5) (natural protein)
chain: MAALAPLPPLPAQFKSIQHHLRTAQEHDKRDPVVAYYCRLYAMQTGMKIDSKTPECRKFLSKLMDQLEALKKQLGDNEAITQEIVGCAHLENYALKMFLYADNEDRAGRFHKNMIKSFYTASLLIDVITVFGELTDENVKHRKYARWKATYIHNCLKNGETPQAGPVGIEEDNDIEENEDAGAASLPTQPTQPSSSSTYDPSNMPSGNYTGIQIPPGAHAPANTPAEVPHSTGVASNTIQPTPQTIPAIDPALFNTISQGDVRLTPEDFARAQKYCKYAGSALQYEDVSTAVQNLQKALKLLTTGREDYDIPTT
notes: spacer between the last LIP5 residue and the TEV protease site that precedes the His tag; same tag, TEV site and linker as ND-LIP5; No TEV cleavage is described; also called full-length LIP5; wild-type LIP5; source: E. coli BL21*(DE3), purified (HisTrap, SEC)
B3: human AQP2 L230A (natural protein, UniProt P41181 1-271, looked up)
chain: T1 sequence (looked up) with L230A
modifications: cysteine residues labeled with C5 maleimide Alexa 488; dephosphorylated with alkaline phosphatase before labeling
notes: Mutant of m1; source: Pichia pastoris, purified (HisTrap, SEC) in OGNG; not shown: His-tag, N-terminal, kept
B4: human AQP2 K238A (natural protein, UniProt P41181 1-271, looked up)
chain: T1 sequence (looked up) with K238A
modifications: cysteine residues labeled with C5 maleimide Alexa 488; dephosphorylated with alkaline phosphatase before labeling
notes: as for B3
B5: human AQP2 L237A (natural protein, UniProt P41181 1-271, looked up)
chain: T1 sequence (looked up) with L237A
modifications: cysteine residues labeled with C5 maleimide Alexa 488; dephosphorylated with alkaline phosphatase before labeling
notes: as for B3
B6: human AQP2 E241A (natural protein, UniProt P41181 1-271, looked up)
chain: T1 sequence (looked up) with E241A
modifications: cysteine residues labeled with C5 maleimide Alexa 488; dephosphorylated with alkaline phosphatase before labeling
notes: as for B3
B7: human AQP2 R233A (natural protein, UniProt P41181 1-271, looked up)
chain: T1 sequence (looked up) with R233A
modifications: cysteine residues labeled with C5 maleimide Alexa 488; dephosphorylated with alkaline phosphatase before labeling
notes: as for B3
B8: human AQP2 L234A (natural protein, UniProt P41181 1-271, looked up)
chain: T1 sequence (looked up) with L234A
modifications: cysteine residues labeled with C5 maleimide Alexa 488; dephosphorylated with alkaline phosphatase before labeling
notes: as for B3

Residue numbers refer to the chain shown, from its start.

One test deals with T1, human aquaporin 2 (AQP2), wild-type. Nature of the test: other fluorescence titration; stoichiometry: labeled AQP2 kept 20 times above the Kd, LIP5 added to a molar LIP5:AQP2 ratio between 0 and 2; saturation point from the intercept of two linear fits; same buffers. The following applies: both partners purified.
With B1, the “stoichiometry N” value was 0.29 molar ratio ND-LIP5:AQP2.

As for B2, the “stoichiometry N” value was 0.42 molar ratio FL-LIP5:AQP2.

A further test shares this target. Nature of the test: other fluorescence titration; Alexa 488-labeled, dephosphorylated AQP2 (around 1 uM) in the cuvette, titrated with unlabeled LIP5; total fluorescence; 20 mM Tris-HCl pH 8, 300 mM NaCl, 0.2% OGNG; triplicate titrations. The conditions noted are these: both partners purified.
A word on the Kd: it is the equilibrium constant for the complex coming apart. A lower Kd goes with higher affinity. Molecule B1 returned a dissociation constant (Kd) of 64.4 nM.

A further test has as its target B2. The test is described as above. The following applies: both partners purified.
The molecule B3 displayed a Kd of 156 nM.

On to B4, for which the affinity, expressed as Kd, was 552 nM.

Molecule B5 registered a dissociation constant Kd of 535 nM.

Regarding B6, binding was put at a Kd of 700 nM.

B7 gave a Kd of 487 nM.

B8 gave a Kd of 126 nM.

The record behind these values is publication PMC6862464, “Structural Insights into AQP2 Targeting to Multivesicular Bodies” (International Journal of Molecular Sciences, 2019).
